These results are taken from the Human Domainome abundance scans (Beltran et al. 2025).

± gives the uncertainty stated by the source.

B1: Zinc finger homeobox protein 4, residues 2562 to 2617; numbered along this chain, Q86UP3 (parent)
chain: RLRTTITPEQLEILYEKYLLDSNPTRKMLDHIAREVGLKKRVVQVWFQNTRARERK

The series covers variants of B1. The series can be described thus: abundance fitness (aPCA) (normalised: wild type 0, dead -1); higher = more abundant; growth selection in yeast, the domain comes from the species named. Conditions: Homo sapiens.
Consider RLRTTITPEQLYILYEKYLLDSNPTRKMLDHIAREVGLKKRVVQVWFQNTRARERK, for which the abundance fitness was -0.435 ± 0.18.

As to RLRTTITPEQLTILYEKYLLDSNPTRKMLDHIAREVGLKKRVVQVWFQNTRARERK, the abundance fitness was 0.164 ± 0.1.

Turning to RLRTTITPEQLWILYEKYLLDSNPTRKMLDHIAREVGLKKRVVQVWFQNTRARERK, the abundance fitness was -0.496 ± 0.077.

Regarding RLRTTITPEQLVILYEKYLLDSNPTRKMLDHIAREVGLKKRVVQVWFQNTRARERK, the abundance fitness was -0.062 ± 0.062.

Turning to RLRTTITPEQLEILYEKTLLDSNPTRKMLDHIAREVGLKKRVVQVWFQNTRARERK, the abundance fitness was -0.874 ± 0.23.

For RLRTTITPEQLEILYEKLLLDSNPTRKMLDHIAREVGLKKRVVQVWFQNTRARERK, the abundance fitness was -0.439 ± 0.13.

For RLRTTITPEQLEILYEKELLDSNPTRKMLDHIAREVGLKKRVVQVWFQNTRARERK, the abundance fitness is -0.943 ± 0.22.

As to RLRTTITPEQLEILYEKSLLDSNPTRKMLDHIAREVGLKKRVVQVWFQNTRARERK, the abundance fitness was -0.975 ± 0.18.

For RLRTTITPEQLEILYEKVLLDSNPTRKMLDHIAREVGLKKRVVQVWFQNTRARERK, the abundance fitness is -0.764 ± 0.095.

Turning to RLRTTITPEQLEILYEKMLLDSNPTRKMLDHIAREVGLKKRVVQVWFQNTRARERK, the abundance fitness is -0.856 ± 0.32.

For RLRTTITPEQLEILYEKALLDSNPTRKMLDHIAREVGLKKRVVQVWFQNTRARERK, the abundance fitness is -1.06 ± 0.2.

RLRTTITPEQLEILYEKHLLDSNPTRKMLDHIAREVGLKKRVVQVWFQNTRARERK: the abundance fitness was -0.773 ± 0.31.

Regarding RLRTTITPEQLEILYEKRLLDSNPTRKMLDHIAREVGLKKRVVQVWFQNTRARERK, the abundance fitness is -0.659 ± 0.12.

On to RLRTTITPEQLEILYEKILLDSNPTRKMLDHIAREVGLKKRVVQVWFQNTRARERK, for which the abundance fitness is -0.246 ± 0.27.

With RLRTTITPEQLEILYEKDLLDSNPTRKMLDHIAREVGLKKRVVQVWFQNTRARERK, the abundance fitness is -1.13 ± 0.4.

On to RLRTTITPEQLEILYEKKLLDSNPTRKMLDHIAREVGLKKRVVQVWFQNTRARERK, for which the abundance fitness is -0.544 ± 0.27.

As to RLRTTITPEQLEILYEKWLLDSNPTRKMLDHIAREVGLKKRVVQVWFQNTRARERK, the abundance fitness is -0.31 ± 0.1.

Consider RLRTTITPEQLEILYEKQLLDSNPTRKMLDHIAREVGLKKRVVQVWFQNTRARERK, for which the abundance fitness was -0.839 ± 0.43.

For RLRTTITPEQLEILYEKPLLDSNPTRKMLDHIAREVGLKKRVVQVWFQNTRARERK, the abundance fitness was -0.842 ± 0.25.

On to RLRTTITPEQLEILYEKCLLDSNPTRKMLDHIAREVGLKKRVVQVWFQNTRARERK, for which the abundance fitness was -0.817 ± 0.077.

Consider RLRTTITPEQLEILYEKFLLDSNPTRKMLDHIAREVGLKKRVVQVWFQNTRARERK, for which the abundance fitness stood at 0.425 ± 0.18.

As for RLRTTITPEQLEILYEKNLLDSNPTRKMLDHIAREVGLKKRVVQVWFQNTRARERK, the abundance fitness was -0.59 ± 0.42.

RLRTTITPEQLEIVYEKYLLDSNPTRKMLDHIAREVGLKKRVVQVWFQNTRARERK: the abundance fitness was -0.945 ± 0.083.

Regarding RLRTTITPEQLEIFYEKYLLDSNPTRKMLDHIAREVGLKKRVVQVWFQNTRARERK, the abundance fitness is -0.718 ± 0.14.

Consider RLRTTITPEQLEICYEKYLLDSNPTRKMLDHIAREVGLKKRVVQVWFQNTRARERK, for which the abundance fitness was -1.16 ± 0.25.

On to RLRTTITPEQLEISYEKYLLDSNPTRKMLDHIAREVGLKKRVVQVWFQNTRARERK, for which the abundance fitness was -0.998 ± 0.17.

In the case of RLRTTITPEQLEIYYEKYLLDSNPTRKMLDHIAREVGLKKRVVQVWFQNTRARERK, the abundance fitness is -0.867 ± 0.17.

On to RLRTTITPEQLEIQYEKYLLDSNPTRKMLDHIAREVGLKKRVVQVWFQNTRARERK, for which the abundance fitness is -0.959 ± 0.17.

As for RLRTTITPEQLEIRYEKYLLDSNPTRKMLDHIAREVGLKKRVVQVWFQNTRARERK, the abundance fitness was -0.849 ± 0.096.

Turning to RLRTTITPEQLEIAYEKYLLDSNPTRKMLDHIAREVGLKKRVVQVWFQNTRARERK, the abundance fitness was -0.765 ± 0.093.

Take RLRTTITPEQLEIWYEKYLLDSNPTRKMLDHIAREVGLKKRVVQVWFQNTRARERK: the abundance fitness was -1.16 ± 0.17.

RLRTTITPEQLEIHYEKYLLDSNPTRKMLDHIAREVGLKKRVVQVWFQNTRARERK: the abundance fitness was -0.846 ± 0.18.

On to RLRTTITPEQLEIKYEKYLLDSNPTRKMLDHIAREVGLKKRVVQVWFQNTRARERK, for which the abundance fitness was -1.05 ± 0.17.

Regarding RLRTTITPEQLEINYEKYLLDSNPTRKMLDHIAREVGLKKRVVQVWFQNTRARERK, the abundance fitness turned out to be 0.341 ± 0.39.

With RLRTTITPEQLEIGYEKYLLDSNPTRKMLDHIAREVGLKKRVVQVWFQNTRARERK, the abundance fitness was -0.773 ± 0.082.

Regarding RLRTTITPEQLEIEYEKYLLDSNPTRKMLDHIAREVGLKKRVVQVWFQNTRARERK, the abundance fitness is -0.924 ± 0.083.

In the case of RLRTTITPEQLEIPYEKYLLDSNPTRKMLDHIAREVGLKKRVVQVWFQNTRARERK, the abundance fitness is -0.658 ± 0.1.

Turning to RLRTTITPEQLEIDYEKYLLDSNPTRKMLDHIAREVGLKKRVVQVWFQNTRARERK, the abundance fitness was -0.754 ± 0.26.

As to RLRTTITPEQLEITYEKYLLDSNPTRKMLDHIAREVGLKKRVVQVWFQNTRARERK, the abundance fitness was -1 ± 0.18.

As to RLRTTITPEQLEIMYEKYLLDSNPTRKMLDHIAREVGLKKRVVQVWFQNTRARERK, the abundance fitness was -0.225 ± 0.088.

For RLRTTITPEQLELLYEKYLLDSNPTRKMLDHIAREVGLKKRVVQVWFQNTRARERK, the abundance fitness is -0.097 ± 0.083.

In the case of RLRTTITPEQLEHLYEKYLLDSNPTRKMLDHIAREVGLKKRVVQVWFQNTRARERK, the abundance fitness was -0.588 ± 0.31.

In the case of RLRTTITPEQLECLYEKYLLDSNPTRKMLDHIAREVGLKKRVVQVWFQNTRARERK, the abundance fitness is -0.389 ± 0.14.

For the variant RLRTTITPEQLERLYEKYLLDSNPTRKMLDHIAREVGLKKRVVQVWFQNTRARERK, the abundance fitness is -0.003 ± 0.052.

Regarding RLRTTITPEQLEELYEKYLLDSNPTRKMLDHIAREVGLKKRVVQVWFQNTRARERK, the abundance fitness was -0.06 ± 0.07.

RLRTTITPEQLEVLYEKYLLDSNPTRKMLDHIAREVGLKKRVVQVWFQNTRARERK: the abundance fitness is -0.072 ± 0.064.

RLRTTITPEQLEKLYEKYLLDSNPTRKMLDHIAREVGLKKRVVQVWFQNTRARERK: the abundance fitness came to 0.173 ± 0.08.
